The values that follow come from IntAct's records for PubMed 31631010.

B1: Palmitoyltransferase ZDHHC5 (Mus musculus), Q8VDZ4 (parent)
chain: MPAESGKRFKPSKYVPVSAAAIFLVGATTLFFAFTCPGLSLNVSPAVPIYNAIMFLFVLANFSMATFMDPGIFPRAEEDEDKEDDFRAPLYKTVEIKGIQVRMKWCATCRFYRPPRCSHCSVCDNCVEEFDHHCPWVNNCIGRRNYRYFFLFLLSLTAHIMGVFGFGLLYVLYHIEELSGVRTAVTMAVMCVAGLFFIPVAGLTGFHVVLVARGRTTNEQVTGKFRGGVNPFTNGCCNNVSRVLCSSPAPRYLGRPKKEKTIVIRPPFLRPEVSDGQITVKIMDNGIQGELRRTKSKGSLEITESQSADAEPPPPPKPDLSRYTGLRTHLSLATNEDSSLLGKDSPPTPTMYKYRPGYSSSSTSAAMPHSSSAKLSRGDSLKEPTSIADSSRHPSYRSEPSLEPESFRSPTFGKSFHFDPLSSGSRSSSLKSAQGTGFELGQLQSIRSEGTTSTSYKSLANQTRNGSLSYDSLLTPSDSPDFESVQAGPEPDPPLGYTSPFLSARLAQQREAERHPRLLPTGPPHREPSPVRYDNLSRHIVASLQEREKLLRQSPPLAGREEEPGLGDSGIQSTPGSGHAPRTSSSSDDSKRSPLSKTPLGRPAVPRFGKPDGLRSRGLGSPEPGTTAPYLGRSISYSSQKAPSGVSETEEVALQPLLTPKDEVQLKTTYSKSNGQPKSIGSASPGPGQPPLSSPTRGGVKKVSGVGGTTYEISV

Variants of B1 are the subject of the test. The following applies: with goga7_human GOLGA7, Q7Z5G4.
With C236S;C237S;C245S, the “effect of a mutation on the interaction” value is given as “disrupting interaction strength”.

As for C134S, the “effect of a mutation on the interaction” value is on record as “with no effect”.
